Source: patent US20220242950A1 (CANTARGIA, published 2022)
Read-outs that look alike come from different tables or passages of the source. Blank lines part the entries; values can stand above or below the binder they belong to.

Experiments:
[1] = biological target: T1, human IL1RAP on the cell surface (human, UniProt Q9NPH3 21-570); assay: cell-based or functional assay
T1 sequence (looked up): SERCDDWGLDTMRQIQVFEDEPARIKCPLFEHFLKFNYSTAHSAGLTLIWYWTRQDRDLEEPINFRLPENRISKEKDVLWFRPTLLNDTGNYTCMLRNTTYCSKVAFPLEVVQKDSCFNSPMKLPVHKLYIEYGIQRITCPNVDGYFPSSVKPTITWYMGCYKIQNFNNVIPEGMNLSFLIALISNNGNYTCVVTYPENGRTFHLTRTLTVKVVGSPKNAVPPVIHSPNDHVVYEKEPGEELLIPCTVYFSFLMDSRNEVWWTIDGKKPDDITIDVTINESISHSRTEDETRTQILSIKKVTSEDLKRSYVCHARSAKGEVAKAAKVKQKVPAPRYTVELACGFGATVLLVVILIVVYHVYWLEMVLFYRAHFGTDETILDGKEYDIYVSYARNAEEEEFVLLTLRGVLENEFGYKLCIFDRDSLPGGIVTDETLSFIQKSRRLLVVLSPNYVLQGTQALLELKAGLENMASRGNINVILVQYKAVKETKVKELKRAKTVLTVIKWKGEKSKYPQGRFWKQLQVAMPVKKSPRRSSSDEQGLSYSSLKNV

[2] = biological target: T1, human IL1RAP on the cell surface; assay: flow cytometry on SKMEL-5 cells, Alexa488 anti-human IgG secondary
Procedure: FIG. 12: Dose-dependent binding of chimeric 48D2 to cell membrane IL1RAP Chimeric 48D2 or hIgG1 (hIg=human immunoglobulin) isotype control antibody was added to SKMEL-5 cells in increasing concentrations and extracellular binding was analyzed by flow cytometry. Chimeric 48D2 specifically bound IL1RAP on the cell membrane in a dose-dependent manner and with higher mean fluorescent intensity (MFI) compared to the hIgG1 isotype control antibody.
The malignant melanoma (or malign melanoma) cell line SKMEL-5, which expresses IL1RAP on the cell surface, was used for the analysis. SKMEL-5 cells were cultured according to standard procedures. 5×10⁴ SKMEL-5 cells were blocked with human Fc block and then stained with 8-step serial dilutions (100 μg/ml-0.03 μg/ml) of chimeric 48D2 or isotype control antibody. Following secondary staining using Alexa488-conjugated anti-human IgG antibody, 10000 cells/sample were analyzed on a CytoFlex (Beckman Coulter). HTB183 cells expressing low levels of surface IL1RAP were used as negative controls.

[3] = biological target: T2, recombinant hIL1RAP Domain1+2+3 (aa21-367) (human, UniProt Q9NPH3 21-367); assay: BLI (BLItz), antibody on Protein A biosensor, hIL1RAP (21-367) in solution
T2 construct: Numbering on Uniprot Q9NPH3
T2 sequence (looked up): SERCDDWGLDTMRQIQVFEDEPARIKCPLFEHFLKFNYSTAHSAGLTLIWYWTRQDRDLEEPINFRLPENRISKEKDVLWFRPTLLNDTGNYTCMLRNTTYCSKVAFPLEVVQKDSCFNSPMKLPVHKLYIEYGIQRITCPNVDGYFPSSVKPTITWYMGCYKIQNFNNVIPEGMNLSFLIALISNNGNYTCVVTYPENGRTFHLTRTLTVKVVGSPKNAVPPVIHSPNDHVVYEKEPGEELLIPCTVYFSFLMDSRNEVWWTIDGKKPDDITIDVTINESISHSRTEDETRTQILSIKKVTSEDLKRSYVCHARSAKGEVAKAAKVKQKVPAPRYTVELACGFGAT
Procedure: (§1) Affinity measurements were done on BLItz™ Label-Free Protein Analysis System from ForteBio, using the Basic Kinetics module in the BLItz Pro 1.3.1.3 software from Molecular Devices. Protein A biosensors were hydrated in blocking buffer (PBS, 0.5% BSA, 0.05% Tween 20, pH 7.4) for minimum 10 min at room temperature before coating. Protein A biosensors were coated with antibodies by dipping the biosensors in 200 μl of antibody solution (10 μg/ml in blocking buffer) for 30 min at room temperature. The sensors were then incubated in 200 μl blocking buffer for at least 10 min before use. […] The baseline was made in blocking buffer with a duration time of 30 sec. Association was made for 120 sec in hIL1RAP followed by 120 sec dissociation in blocking buffer.
Affinity measurement results are shown in Table 4 for chimeric 48D2, as well as for humanized 48D2 variant VH5:VL4 (see Example 11) and for humanized and de-immunized 48D2 variant VH5.GL:VL4 (see Example 13). kₐ is the association rate constant, for characterization of the antibody binding to the target, kd is the dissociation rate constant, for characterization of the antibody dissociation from the target, and KD is the equilibrium dissociation constant between the antibody and its antigen, the ratio of kd/kₐ. […] The lower the KD value (lower concentration), the higher the affinity.

mouse IL1RAP [4] = biological target: T3, mouse IL1RAP (mouse (Mus musculus), UniProt Q61730 21-367, limits assumed); assay: indirect ELISA on coated IL1RAP, goat anti-human antibody-alkaline phosphatase, absorbance at 405 nm
T3 construct: Coated ortholog in the cross reactivity ELISA; also called mIL1RAP; murine IL1RAP
T3 sequence (looked up): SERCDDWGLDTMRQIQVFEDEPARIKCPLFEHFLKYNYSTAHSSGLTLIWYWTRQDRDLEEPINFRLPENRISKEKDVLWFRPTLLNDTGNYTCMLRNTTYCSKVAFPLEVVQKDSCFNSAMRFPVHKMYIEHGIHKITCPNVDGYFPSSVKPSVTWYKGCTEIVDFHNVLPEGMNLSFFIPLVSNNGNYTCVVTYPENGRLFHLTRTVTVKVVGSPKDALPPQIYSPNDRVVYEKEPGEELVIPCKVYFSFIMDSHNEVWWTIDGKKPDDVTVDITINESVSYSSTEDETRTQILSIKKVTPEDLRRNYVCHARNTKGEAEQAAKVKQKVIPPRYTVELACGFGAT
Procedure: (§2) Microtiter plate wells were coated with IL1RAP orthologs (Mus musculus, Rattus norvegicus, Macaca fascicularis (Mf, synonymous to cynomolgus monkey), Oryctolagus cuniculus, Canis lupus familiaris, Sus scrofa) and incubated for 1 hour at 37° C. Plates were washed followed by a blocking step. After 1 hour incubation at room temperature on agitation, the plates were washed again. The antibody was diluted in fourfold serial dilution, ranging from 4000 ng/ml to 0.24 ng/ml, in ELISA blocking solution, and then transferred to the ELISA plate. Plates were incubated at 37° C. in 30 min on agitation and then washed. Goat Anti-Human antibody conjugated to Alkaline Phosphatase was added and incubated 30 min at 37° C. on agitation. The plates were washed followed by addition of substrate (4-Nitrophenyl phosphate disodium salt hexahydrate). The plates were thereafter incubated at room temperature on agitation and absorbance at 405 nm measured consecutively for 50 min. Absorbance at 0 min was taken as background signal.
(§3) The antibody is added in increasing concentrations and absorbance at 405 nm is used to detect binding of the antibody to IL1RAP orthologues. 48D2 is cross reactive to IL1RAP from human, cynomolgus monkey (cyno) and pig, but has no cross reactivity to IL1RAP from mouse, rat, rabbit or dog (FIG. 14 and Table 7).

rat IL1RAP [5] = biological target: T4, rat IL1RAP (rat (Rattus norvegicus), UniProt Q63621 21-367, limits assumed); assay: as above
T4 construct: also called rnIL1RAP
T4 sequence (looked up): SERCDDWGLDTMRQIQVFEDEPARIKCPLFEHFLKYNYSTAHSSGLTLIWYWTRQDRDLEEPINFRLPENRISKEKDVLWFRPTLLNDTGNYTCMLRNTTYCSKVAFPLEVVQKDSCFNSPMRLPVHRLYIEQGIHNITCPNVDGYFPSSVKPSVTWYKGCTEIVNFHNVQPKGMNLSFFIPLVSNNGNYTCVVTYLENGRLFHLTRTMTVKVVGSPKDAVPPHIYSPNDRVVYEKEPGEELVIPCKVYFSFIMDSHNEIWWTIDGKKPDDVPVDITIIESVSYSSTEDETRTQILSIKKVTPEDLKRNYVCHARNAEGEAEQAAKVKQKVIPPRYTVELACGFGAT
Procedure: as §2, §3

mouse IL1RAP [6] = biological target: T3, mouse IL1RAP; assay: as above; remark: listed apart in the source
Procedure: as §2
(§4) The antibody is added in increasing concentrations and absorbance at 405 nm is used to detect binding to IL1RAP. As for chimeric 48D2, the humanized and de-immunized variants h48D2 VH5.GL:VL4 and h48D2 VH5.GL:VL5.GL were cross reactive to IL1RAP from cynomolgus monkey (cyno) and pig, but have no cross reactivity to IL1RAP from mouse, rat, rabbit or dog (FIG. 18 and Table 20).

rat IL1RAP [7] = biological target: T4, rat IL1RAP; assay: as above; remark: listed apart in the source
Procedure: as §2, §4

[8] = biological target: T2, recombinant hIL1RAP Domain1+2+3 …; assay: bio-layer interferometry, human IL1RAP
Procedure: as §1
KD values for affinity towards human IL1RAP are shown in Table 17 for the de-immunized h48D2 variants. Affinity was measured using bio-layer interferometry. […] See also Table 4 for a direct comparison of 48D2, humanized 48D2, and de-immunized h48D2.

[9] = biological target: T1, human IL1RAP on the cell surface; assay: cell-based or functional assay; remark: listed apart in the source

IC50 of IL-1α signaling (HEK-Blue assay) [1]: 1920 pM
IC50 of IL-1β signaling (HEK-Blue assay) [1]: 700 pM
IC50 of IL-33 signaling (HEK-Blue assay) [1]: 2920 pM
IC50 of IL-36α signaling (HEK-Blue assay) [1]: 8.3 pM
IC50 of IL-36β signaling (HEK-Blue assay) [1]: 8.1 pM
IC50 of IL-36γ signaling (HEK-Blue assay) [1]: 11.1 pM
EC50 (read off the curve) [2]: ~6000 pM
Kd [3]: 2670 pM
koff [3]: 0.000174 s⁻¹
kon [3]: 65200 M⁻¹ s⁻¹
binding result (mouse IL1RAP [4]): no binding (tested: 4000 ng/mL)
binding result (rat IL1RAP [5]): no binding (tested: 4000 ng/mL)
B1: chimeric 48D2 (antibody, V domains shown, not shown: a dimerising Fc or GST)
VH: QEQLEESGGGLVKPGGSLTLTCTVSGPSLSHFDITWVRQAPGSGLEWIGTISPGVSTYYASWAKSRSTITSNTNLNTVTLKMTSLTAADTATYFCARGGVGSSWKAFDLWGPGTLVTISS
VL: APVLTQTPASVEVAVGGTVTIKCQASESISTALAWYQQKPGQPPKLLIYKASTLPSGVSSRFKGSGSGTEFALTISDLECDDAATYYCQQGFSSGNVHNAFGGGTEVVVKR
notes: Chimeric rabbit/human IgG1, expressed in CHO cells; also called ch48D2; 48D2 chimeric (ch) rabbit/human anti-human IL1RAP

binding result (mouse IL1RAP [6]): no binding (tested: 4000 ng/mL)
binding result (rat IL1RAP [7]): no binding (tested: 4000 ng/mL)
Kd [8]: 1470 pM
IC50 of IL-1α signaling (HEK-Blue assay) [9]: 240 pM
IC50 of IL-1β signaling (HEK-Blue assay) [9]: 130 pM
IC50 of IL-33 signaling (HEK-Blue assay) [9]: 3560 pM
IC50 of IL-36α signaling (HEK-Blue assay) [9]: 174 pM
IC50 of IL-36β signaling (HEK-Blue assay) [9]: 185 pM
IC50 of IL-36γ signaling (HEK-Blue assay) [9]: 244 pM
B2: h48D2 VH5.GL:VL5.GL (antibody, human IgG1, kappa, L234A L235A)
heavy: not shown
light: DIQMTQSPSTLSASVGDRVTITCQASESISTALAWYQQKPGQPPKLLIYKASTLPSGVPSRFSGSGSGTEFTLTISDLESDDAATYYCQQGFSSGNVHNAFGGGTEVVVKRTVAAPSVFIFPPSDEQLKSGTASVVCLLNNFYPREAKVQWKVDNALQSGNSQESVTEQDSKDSTYSLSSTLTLSKADYEKHKVYACEVTHQGLSSPVTKSFNRGEC
notes: Humanized and de-immunized; also called VL5.GL:VH5.GL
